Experiment [1] addresses T1, PD-L1-muFc (human).
T1 construct: also called soluble human PD-L1
The experiment in a line: ELISA, PD-L1-muFc coated, anti-human Fc-HRP detection (FIG. 2, Panel B). The method, then: A 96-well plate was coated with PD-L1-muFc (human PD-L1 extracellular domain fused to N-terminus of mouse Fc, its amino acid sequence is as set forth in SEQ ID NO: 53). Various concentrations of the samples as well as control molecules were added. HRP labeled goat anti-human Fc antibody was used for detection. After being developed with TMB, the plate was read at a wavelength of 450/650 nm in a microplate reader.

Experiment [2] addresses human PD-L1 (WT) (human, UniProt Q9NZQ7 19-238, limits assumed). The experiment in a line: method not stated; PD-L1 ISVD-9 on human PD-L1 WT.
For experiment [3], the target named is T2, CTLA4-muFc (human).
T2 construct: also called soluble human CTLA4
T2 sequence (chain, as listed by the source limits assumed): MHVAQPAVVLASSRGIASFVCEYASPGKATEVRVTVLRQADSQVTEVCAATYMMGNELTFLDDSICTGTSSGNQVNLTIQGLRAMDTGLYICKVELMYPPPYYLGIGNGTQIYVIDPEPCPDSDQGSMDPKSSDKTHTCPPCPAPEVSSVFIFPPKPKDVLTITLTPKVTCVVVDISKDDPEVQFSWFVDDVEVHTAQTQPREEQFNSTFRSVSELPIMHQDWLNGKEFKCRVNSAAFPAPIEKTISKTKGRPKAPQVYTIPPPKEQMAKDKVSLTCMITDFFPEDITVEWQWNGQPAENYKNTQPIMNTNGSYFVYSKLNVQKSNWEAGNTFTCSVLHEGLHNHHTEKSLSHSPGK
As to the kind of experiment: ELISA, CTLA4-muFc coated, anti-human Fc-HRP detection (FIG. 2, Panel C). The protocol:
A 96-well plate was coated with CTLA4-muFc (human CTLA4 extracellular domain fused to the N-terminus of mouse Fc, its amino acid sequence is as set forth in SEQ ID NO: 52). Various concentrations of the samples as well as control molecules were added. HRP labeled goat anti-human Fc antibody was used for detection. After being developed with TMB, the plate was read at a wavelength of 450/650 nm in a microplate reader.

Chain of human PD-L1 (WT) (Q9NZQ7 19-238 limits assumed): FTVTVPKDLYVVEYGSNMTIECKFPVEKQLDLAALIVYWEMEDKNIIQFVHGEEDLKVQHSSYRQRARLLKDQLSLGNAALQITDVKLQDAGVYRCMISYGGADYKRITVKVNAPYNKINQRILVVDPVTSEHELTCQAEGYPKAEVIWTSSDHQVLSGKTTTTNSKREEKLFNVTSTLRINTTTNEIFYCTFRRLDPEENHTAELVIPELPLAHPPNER
T1 sequence (chain, as listed by the source limits assumed): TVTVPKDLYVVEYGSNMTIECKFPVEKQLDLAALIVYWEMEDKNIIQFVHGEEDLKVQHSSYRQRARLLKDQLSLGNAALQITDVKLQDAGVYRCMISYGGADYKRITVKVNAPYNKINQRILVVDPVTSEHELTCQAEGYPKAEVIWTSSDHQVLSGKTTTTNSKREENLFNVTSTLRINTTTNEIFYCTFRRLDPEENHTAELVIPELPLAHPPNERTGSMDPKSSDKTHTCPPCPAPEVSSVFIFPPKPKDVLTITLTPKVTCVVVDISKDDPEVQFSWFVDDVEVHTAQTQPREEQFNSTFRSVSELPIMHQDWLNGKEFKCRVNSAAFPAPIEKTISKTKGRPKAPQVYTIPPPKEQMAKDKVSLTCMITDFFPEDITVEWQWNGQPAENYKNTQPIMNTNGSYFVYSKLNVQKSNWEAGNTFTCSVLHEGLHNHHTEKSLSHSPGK

B1: durvalumab (antibody, V domains shown)
VH: EVQLVESGGGLVQPGGSLRLSCAASGFTFSRYWMSWVRQAPGKGLEWVANIKQDGSEKYYVDSVKGRFTISRDNAKNSLYLQMNSLRAEDTAVYYCAREGGWFGELAFDYWGQGTLVTVSS
VL: EIVLTQSPGTLSLSPGERATLSCRASQRVSSSYLAWYQQKPGQAPRLLIYDASSRATGIPDRFSGSGSGTDFTLTISRLEPEDFAVYYCQQYGSLPWTFGQGTKVEIK
The molecule B1 returned an EC50 in experiment [1] of roughly 0.6 nM.

B2: PD-L1 ISVD-9 (VHH)
VHH: QVQLVESGGGLVQPGGSLRLSCAASGKMSSRRCMAWFRQAPGKERERVAKLLTTSGSTYLADSVKGRFTISRDNSKNTVYLQMNSLRAEDTAVYYCAADSFEDPTCTLVTSSGAFQYWGQGTLVTVSS
notes: also called aPDL1.9; humanized variant of PD-L1 ISVD-4
In turn, B2 gave a Kd in experiment [2] of 5.92 nM.

B3: ipilimumab (antibody, V domains shown)
VH: QVQLVESGGGVVQPGRSLRLSCAASGFTFSSYTMHWVRQAPGKGLEWVTFISYDGNNKYYADSVKGRFTISRDNSKNTLYLQMNSLRAEDTAIYYCARTGWLGPFDYWGQGTLVTVSS
VL: not shown
Molecule B3 yielded an EC50 in experiment [3] of roughly 0.5 nM.

One may read the EC50 as the concentration that produces a half-maximal response. Usually Kd stands for the free concentration of one partner at which half of the binding sites on the other are occupied at equilibrium, for simple one-to-one binding.
